Test system: MS2 coat protein
Test: apparent KD of MS2 coat protein; designed switch direction (-1 OFF switch, 1 ON switch): 1; higher = weaker reporter binding
Procedure, shortened: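 Stalled E. coli RNA polymerase transcribed designed RNA switches on Illumina chips, which were then titrated with SNAP-549-labelled MS2 coat protein, doubling from 0.7 or 1.5 nM to 3 µM. Steps lasted from 0.8–1.5 h at the lowest concentration to 10–20 min at the highest. The apparent KD is each design's median over clusters of curve-fitted normalised fluorescence.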

[1] = input ligand: microRNA oligo, concentration not stated
[2] = Eterna round: R95, input ligand: FMN 200 uM
[3] = Eterna round: R95, input ligand: microRNA oligo, concentration not stated
[4] = Eterna round: R95, input ligand: none

| Sequence | apparent KD of MS2 coat protein (input ligand: FMN 200 uM) | apparent KD of MS2 coat protein [1] | apparent KD of MS2 coat protein (input ligand: none) | apparent KD of MS2 coat protein [2] | apparent KD of MS2 coat protein [3] | apparent KD of MS2 coat protein [4] |
| --- | --- | --- | --- | --- | --- | --- |
| AGCUAGUACCGAGGAUAUACAUACAUGAGGAUCACCCAUGUAUACAUGAUUUAAUGAGACUACAUGUAGAAGGCGGUACUAGCA [JL SSNG2 1.23] (Eterna round: R96, puzzle: Same State NG 2) | 22 nM | 68.6 nM | 79.1 nM |  |  |  |
| GGAGCCGGUACUGAGGAUAUUCAUAUUAAAACAUGAGGAUCACCCAUGUAGGCCAGAAGGCCUUGGGAGAAGGCGGAUCGGCUCC [Biseusra - 2] (puzzle: Same State 2) |  |  |  | 22 nM | 180 nM | 417 nM |
| AAGUUAAGCUUUUUGUUCUGCCUAUUCUGACAUGAGGAUCACCCAUGUGGUCGAACGACUACGUGUGUAGUUGAGAU [JR_SHM208A_Sub030] (Eterna round: R96, puzzle: Sensor for hsa-mir-208a) | 493 nM | 341 nM | 550 nM |  |  |  |
| UUACUCAUGUAAGGAUAUGCAGCCGAAACGGCUGCAGAAGGUACUAUAAUACAUGAGGAUCACCCAUGUAAAAUAUAUAAAGUU [Mat - Same State NG 1 - JL mod - D96] (Eterna round: R96, puzzle: Same State NG 1) | 33.9 nM | 33.6 nM | 28.2 nM |  |  |  |
| AGUCCAGCCUGAGCUGGACAAAAGCAUGUACAUGAGGAUCACCCAUGUCAUGUAUAAGCUUUUUGCUCGUCUUAAUA [Zipper 49 - 11] (puzzle: Sensor for hsa-mir-208a) |  |  |  | 24 nM | 11 nM | 21.3 nM |
| CUGUCUACAGGUGUCUUUGCUCGUUUUAUACAUGAGGAUCACCCAUGUUAUAGCCCGGUGCUUGCGCUGGGCUGAUU [JL ViennaUCT Tearor mod 8] (puzzle: Sensor for hsa-mir-208a) |  |  |  | 66.8 nM | 14.1 nM | 63 nM |
| GCUCGCGGCGCAGGAUAUGGGUGCCUGUACAUGAGGAUCACCCAUGUUAAGGGACGGAAAACGAACCAGAAGGGCGUCGCAAGC [Zaorquor] (Eterna round: R96, puzzle: Same State NG 2) | 56 nM | 167 nM | 140 nM |  |  |  |
| CAGUGCUGUCGAGAGGAUAUGCGGUGAUGGACAUGAGGAUCACCCAUGUUAGCGACAGCGUUACGGCAGAAGGCUCUACCCACUG [Soteed Omei mod 47] (puzzle: Same State 2) |  |  |  | 62.5 nM | 28.7 nM | 42.7 nM |
| AUAAAACAUGAGGAUCACCCAUGUCAACAAAGUCGAGGAUAUGGGCAAAUAAAAUAAGAACCAGAAGGCGAAUAAU [Teenbexe] (Eterna round: R96, puzzle: Same State 1) | 42.1 nM | 207 nM | 273 nM |  |  |  |
| ACAAGCUUUUCUGUAUUGAAAGGUGGGAUACAUGAGGAUCACCCAUGUUUUUUUGAAAAUAAUAUUCCUCGUCUUAU [JR_SHM208A_Sub091] (puzzle: Sensor for hsa-mir-208a) |  |  |  | 51.5 nM | 33.1 nM | 47.1 nM |
| AGUCCAGCCUGAGCUGGACAAAAGCAUGUACAUGAGGAUCACCCAUGUUCAUGUACAAGCUUUUUGCUCGUCUUGCC [salish99_208a_r3_107x] (puzzle: Sensor for hsa-mir-208a) |  |  |  | 634 nM | 15.9 nM | 1130 nM |
| AGGUGGUGUGGAAAGGAUAUACGGUUGAGGACAUGAGGAUCACCCAUGUGGUAGAGGACGUGAGUGUAGAAGGUUCGGGAUUGGU [JR_SS@_Sub023] (puzzle: Same State 2) |  |  |  |  | 48.5 nM |  |
| ACAAAGAACACAGGAUAUCGGAAAGGAAGUGUACGAGAAGGGUGGUCAACAGUACAUGAGGAUCACCCAUGUGGUGGAUGGCAA [PowerStrip SSNG 1.12] (Eterna round: R96, puzzle: Same State NG 1) | 177 nM | 2.42 nM | 1440 nM |  |  |  |
| UUCCUACAUGAGGAUCACCCAUGUGACGCCUCGAUAGGAUAUGCGUGUGCCUUGGCGCAUGCAGAAGGAUUGUAGC [JL Aveso mod 8] (puzzle: Same State 1) |  |  |  | 224 nM | 27.6 nM | 21.4 nM |
| AAACAUGAGCGAGGAUAUGCGGAGGAUUACCCUGUAGAAGGCGCAUGUAAAACAACAUGAGGAUCACCCAUGUCAUGUACAUGU (Eterna round: R96, puzzle: Same State NG 1) | 168 nM | 115 nM | 226 nM |  |  |  |
| AUAAGUUCGAUGCUCGUCUUUCCGUACAAACAUGAGGAUCACCCAUGUGAUCGGGAAGUAGCCCGAUCAGUAUGGCC [Leceen] (puzzle: Sensor for hsa-mir-208a) |  |  |  | 30.6 nM | 16.3 nM | 27.5 nM |

| Sequence | apparent KD of MS2 coat protein (input ligand: FMN 200 uM) | apparent KD of MS2 coat protein [1] | apparent KD of MS2 coat protein (input ligand: none) | apparent KD of MS2 coat protein [2] | apparent KD of MS2 coat protein [3] | apparent KD of MS2 coat protein [4] |
| --- | --- | --- | --- | --- | --- | --- |
| AGUCCAGCCUGAGCUGGACAAAAGCAUGUACAUGAGGAUCACCCAUGUCAUGUAUAAGCUUUUUGCUCGUUUUAAUA [Zipper 49 - 16] (puzzle: Sensor for hsa-mir-208a) |  |  |  | 19.9 nM | 10.7 nM | 19 nM |
| AAGUAACAUGAGGAUCACCCAUGUGAGGUGAGCGUAGGAUAUCGAGGAGGAAGGGUGGAGCGAGAAGGACGAGAAG [JR_SS1_Sub097] (puzzle: Same State 1) |  |  |  | 114 nM | 262 nM | 402 nM |
| AGUAUACAUGAGGAUCACCCAUGUCAGUAACUGACAGGAUAUGCGUUGCAUCACUGUAAUGCAGAAGGGUCUUGUA [Same State 1 - Mod of JMF's solution 1] (Eterna round: R96, puzzle: Same State 1) | 138 nM | 324 nM | 379 nM |  |  |  |
| UUGCCGCGGGUAGGAUAUGGUCACACUUCUAAAACAUGAGGAUCACCCAUGUCCGACACAUAAAGCCAGAAGGACCCGCGGCUC [Erisriin] (Eterna round: R96, puzzle: Same State NG 2) | 18.2 nM | 47.4 nM | 77.3 nM |  |  |  |
| AUGGUGCAGGUACAGGAUAUGUUGCUCGUAACAUGAGGAUCACCCAUGUACCUAUGAGAUUAAAUGCAGAAGGGUGCACACCAAA [Mat - Same State 2 - Mod of UCT - D90] (puzzle: Same State 2) |  |  |  | 39.7 nM | 507 nM | 707 nM |
| UCGAGCGUACUUGCAGACAUGAGGAUCACCCAUGUAAAUGGGAAGGAUAUGGUACCGUUUCGGUACCAGAAGGUCCUGGGUGCU [salish99_SSNG3_r04_307] (Eterna round: R96, puzzle: Same State NG 3) | 329 nM | 1090 nM | 984 nM |  |  |  |
| AGGCUCAGAGCAGGAUAUAUGUGGUCACAUGAGGAUCACCCAUGUCUCGAGCUUCGGCUCGAGGCAUAGAAGGGCUCUGAGCCA [SSNG2/5-B1] (Eterna round: R96, puzzle: Same State NG 2) | 963 nM | 22.9 nM | 53.9 nM |  |  |  |
| GAUUAACAUGAGGAUCACCCAUGUCGUAUUAUGGGAGGAUAUACGUGGACCGUAGUCCGCGUAGAAGGCCUAAUUG [JL-ss1-3.21 janelle mod] (puzzle: Same State 1) |  |  |  |  | 76.4 nM |  |
| CUGAGCGAUUAAGGAUAUCACGUCGAAUAGACGUGAGAAGGUGAUCAUAACAUGAGGAUCACCCAUGUAUUACAUGAAGCUCAG [SSNG1/3-A1] (Eterna round: R96, puzzle: Same State NG 1) | 305 nM | 100 nM | 108 nM |  |  |  |
| UUUACUUUCAUAGGAUAUCAUGCGAAAAUUGCGUGAGAAGGGUGCACACUGUCUUUCUAGGAGUACAUGAGGAUCACCCAUGUG [SameState NG1 #66] (Eterna round: R96, puzzle: Same State NG 1) | 52.4 nM | 48.3 nM | 50.9 nM |  |  |  |
| AUUUAACAAGCUUUUUGCUCGUCUUAUAAACAUGAGGAUCACCCAUGUAAUAGCGUGAGAGUAAAUUAUUAAAUAAU [JMF 91] (puzzle: Sensor for hsa-mir-208a) |  |  |  | 13 nM | 39.9 nM | 11.9 nM |
| UAGAGAGGAAGCGAGGAUAUCGUGUGAGGUACAUGAGGAUCACCCAUGUUUUAUGUUGAGAGAGGCGAGAAGGCGCAGGAGAAAA [JR_SS2_Sub087] (puzzle: Same State 2) |  |  |  | 20 nM | 37.3 nM | 26.2 nM |
| AAUUAAUUAAUACAUGAGGAUCACCCAUGUAAUUAUUAGAUCAAGGAUAUCAGCUCGAAUAGAGCUGAGAAGGUGAUCACAUGU [SSNG3/18-A1] (Eterna round: R96, puzzle: Same State NG 3) |  | 259 nM |  |  |  |  |
| GAGUGGCAGUUAGGAUAUACAGUGAUAAUGAUAGUAGAAGGAACUGACAUGAGGAUCACCCAUGUAGGACUAAUCCAGAGAGAG [Parity 32 - Jieux - Same State NG 1] (Eterna round: R96, puzzle: Same State NG 1) | 92.3 nM | 21.2 nM | 31.5 nM |  |  |  |
| GUAAGGCAAGCUUUUUUCUCGUAGUGUAAACAUGAGGAUCACCCAUGUGCUCGCCCUGGACCUUUGGAUCGCAGAAA [Tiesmain] (puzzle: Sensor for hsa-mir-208a) |  |  |  | 36.4 nM | 22.2 nM | 46.3 nM |
| UACAAUCUAUCUGAGGAUAUCAUGAUCAUAACAUGAGGAUCACCCAUGUGCAGGAAAACUGCAUAUGAGAAGGCAGAUAGAUUGU [salish99_ss2_r3_073] (puzzle: Same State 2) |  |  |  | 214 nM | 154 nM | 863 nM |

From the supplement of paper PMC9170038
